Results from publication PMC4423619 (Journal of glycomics & lipidomics, 2015).

Biological target: T1, rat testis FSH receptor (rat (endogenous in rat testis), UniProt P20395 18-692)
T1 sequence (looked up): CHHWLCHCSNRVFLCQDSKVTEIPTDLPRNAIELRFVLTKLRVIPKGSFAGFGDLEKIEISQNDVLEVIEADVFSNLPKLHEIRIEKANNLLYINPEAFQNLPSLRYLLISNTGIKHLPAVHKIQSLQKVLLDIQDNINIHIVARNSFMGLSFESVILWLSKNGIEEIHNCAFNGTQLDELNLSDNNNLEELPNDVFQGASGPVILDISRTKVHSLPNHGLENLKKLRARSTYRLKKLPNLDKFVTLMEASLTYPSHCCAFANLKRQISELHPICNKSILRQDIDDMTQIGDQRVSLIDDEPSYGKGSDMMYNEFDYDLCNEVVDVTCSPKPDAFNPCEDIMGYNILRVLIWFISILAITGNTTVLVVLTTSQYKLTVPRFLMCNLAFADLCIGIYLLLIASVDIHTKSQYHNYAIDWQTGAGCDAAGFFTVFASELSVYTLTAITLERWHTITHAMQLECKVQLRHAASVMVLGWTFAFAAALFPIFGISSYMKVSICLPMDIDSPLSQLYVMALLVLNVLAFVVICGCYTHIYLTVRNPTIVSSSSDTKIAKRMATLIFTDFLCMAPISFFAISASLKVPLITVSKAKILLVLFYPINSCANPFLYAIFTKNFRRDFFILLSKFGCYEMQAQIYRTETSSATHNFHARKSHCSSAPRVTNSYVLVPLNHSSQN
Assay: radioligand binding

B1: human pituitary hFSH^24 glycoform (fully-glycosylated hFSH^24) (complex)
chain 1: not shown
chain 2: NSCELTNITIAIEKEECRFCISINTTWCAGYCYTRDLVYKDPARPKIQKTCTFKELVYETVRVPGCAHHADSLYTYPVATQCHCGKCDSDSTDCTVRGLGPSYCSFGEMKE
modifications: N-glycans at Asn52 and Asn78 | N-glycans at Asn7 and Asn24
ID50: 269 ng
